Assay results as given in PMC11092324 (Journal of Virology, 2024).

Key:
Conditions in all cases: both partners purified
[1] = target: T1, GI.9 Vancouver virus-like particles (VP1 protein of the norovirus GI.9 Vancouver strain) (Norovirus Hu/GI.9/Vancouver730/2004/CAN, UniProt F2XMU3, strain); assay: ELISA; sandwich ELISA: Strep-tagged CV-2F5 scFv (0.7 µM in PBS) held on Strep-Tactin-coated wells, VLPs added in twofold serial dilutions, 37°C 2 h, detected with rabbit anti-VLP antisera; data fit to the Michaelis-Menten equation, Km taken as Kd (affinity or avidity); concentration counted as VP1
T1 construct: also called Vancouver VLPs; GI.9 Vancouver VP1

[2] = target: T2, P domain of the VP1 protein from the GI.4 Chiba strain (P dimer) (norovirus GI.4 Chiba strain); assay: crystal structure; Chiba P domain mixed with CV-2F5 scFv in a molar ratio of 1:1.2, complex isolated by size-exclusion chromatography, crystallized by sitting drop at 25°C in 35% Tacsimate pH 7.0
T2 construct: also called Chiba P domain protein; Chiba P dimers; source: E. coli cell-free protein synthesis system, purified (HisTrap, SUMO protease, HiTrapQ)
T2 chain: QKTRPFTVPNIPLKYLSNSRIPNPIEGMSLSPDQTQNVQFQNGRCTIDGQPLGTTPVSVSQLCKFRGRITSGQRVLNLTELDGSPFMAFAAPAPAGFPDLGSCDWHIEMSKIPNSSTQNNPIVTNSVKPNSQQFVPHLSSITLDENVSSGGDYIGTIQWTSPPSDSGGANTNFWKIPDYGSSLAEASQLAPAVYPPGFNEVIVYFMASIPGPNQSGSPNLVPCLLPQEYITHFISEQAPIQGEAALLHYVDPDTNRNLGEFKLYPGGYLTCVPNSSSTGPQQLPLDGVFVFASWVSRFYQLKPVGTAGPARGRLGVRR

[3] = target: T1, GI.9 Vancouver virus-like particles …; assay: ELISA; sandwich ELISA: CV-1A1 Fv-clasp or scFv (0.7 µM in 50 mM carbonate buffer pH 9.6) coated on high-binding microplates, VLPs added in twofold serial dilutions, 37°C 2 h, detected with rabbit anti-VLP antisera; data fit to the Michaelis-Menten equation, Km taken as Kd (affinity or avidity); concentration counted as VP1

B1: Strep-tagged CV-2F5 scFv (scFv, V domains shown)
VH: EVQLVESGGGLVKPGGSLRLSCAASGFTFSSYNMNWVRQAPGKGLEWVSSISTSSRYIYYADSVKGRFTISRDNAKNSLYLQMNSLRAEDTAVYYCAREEGSVDYGMDVWGQGTTVTVSS
VL: not shown
notes: also called CV-2F5-Strep; source: E. coli harboring pETSUMO-CV-2F5-Strep, purified (TALON resin, SUMO protease on the resin); not shown: His tag, N-terminal, cleaved; SUMO, N-terminal, cleaved; Strep-tag, C-terminal, kept
[1]
  Kd: 14.4 nM

B2: CV-2F5 scFv (N11-TEV construct, tag removed) (scFv, V domains shown)
VH: B1 VH
VL: not shown
notes: also called CV-2F5 antibody fragment; CV-2F5 scFv antibodies; source: E. coli cell-free protein synthesis system, purified (HisTrap, TEV protease, HiTrap SP)
[2]
  stoichiometry N: 1

B3: CV-1A1 Fv-clasp (other)
VH: EVQLVESGAEVKKPGASVKVSCKASGYTFTSLYMHWVRQAPGQGLEWMGMINPSGGGTWNAQKFQGRVTMTRDTSTSTVYMELRSLRSDDTAMYYCARDSDQYSQGLGYWGQGTLVTVCS
VL: QSALTQPASVSGSPGQSITISCTGTSSDVGGYNYVSWYQQHPGKAPKLMIYDVSKRPSGVSNRFSGSKSGNTASLTISGLQAKDEADYYCSSYTSSSTWVFGGGTKLTVL
notes: also called CV-1A1 Fv-clasp fragments; Fv-clasp version of CV-1A1; source: E. coli cell-free protein synthesis system (with DsbC and Skp), purified (HisTrap, TEV protease, HiTrap Q)
[3]
  binding result: no binding
